Test results reported in patent US20220169747A1 (CERTIS THERAPEUTICS, published 2022).
Bridges are numbered along the chain shown (N, C = ends).

T1: control irrelevant peptide H-LEEKKGNYVVTDHC-NH2 coupled to KLH (also: coupled to KLH)
T1 construct: Synthetic negative control; also called control peptide; negative control peptide-KLH
T1 peptide: H-LEEKKGNYVVTDHC-NH2

T2: linear HER2 peptide immunogen H-CPLHNQEVTAEDGTQR-NH2 coupled to KLH (also: coupled to KLH)
T2 construct: Synthetic peptide; also called linear peptide; KLH-linear peptide
T2 peptide: H-CPLHNQEVTAEDGTQR-NH2

T3: cyclic HER2 peptide immunogen H-GCPLHNQEVTAEDGTQRC-NH2 coupled to KLH (human, disulfide 2-18 (inferred); also: coupled to KLH)
T3 construct: also called cyclised peptide; circularised peptide
T3 peptide: H-GCPLHNQEVTAEDGTQRC-NH2

T4: recombinant ErbB4/HER4 ECD (UniProt Q15303 26-651, limits assumed)
T4 construct: extracellular domain; also called ErbB4 ECD
T4 sequence (looked up): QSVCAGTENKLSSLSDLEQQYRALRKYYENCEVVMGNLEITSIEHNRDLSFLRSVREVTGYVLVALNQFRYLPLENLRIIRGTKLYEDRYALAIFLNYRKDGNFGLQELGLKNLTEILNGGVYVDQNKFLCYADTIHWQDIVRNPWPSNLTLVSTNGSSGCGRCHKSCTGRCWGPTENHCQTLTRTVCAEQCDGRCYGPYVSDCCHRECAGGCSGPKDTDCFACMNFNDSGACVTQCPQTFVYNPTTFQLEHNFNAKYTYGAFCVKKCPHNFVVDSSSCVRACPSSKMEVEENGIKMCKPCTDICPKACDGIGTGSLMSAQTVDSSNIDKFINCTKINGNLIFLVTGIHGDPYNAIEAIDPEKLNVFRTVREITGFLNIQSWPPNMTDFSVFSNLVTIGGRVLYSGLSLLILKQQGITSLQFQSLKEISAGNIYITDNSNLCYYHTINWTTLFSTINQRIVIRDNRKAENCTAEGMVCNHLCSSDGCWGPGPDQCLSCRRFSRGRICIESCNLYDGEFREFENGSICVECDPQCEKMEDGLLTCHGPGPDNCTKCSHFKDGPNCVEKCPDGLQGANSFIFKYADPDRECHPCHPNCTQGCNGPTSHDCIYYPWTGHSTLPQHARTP


Tests used:
[1] = target: T1, control irrelevant peptide …; experiment: ELISA, antigen on the plate, anti-mouse Ig-alkaline phosphatase, pNPP, A405nm
Method: (§1) Polystyrene 96-well plates were coated with 3% FCS in PBS for one hour at RT. A final peptide concentration of 1 mg/mL was achieved by diluting the peptide in 0.1% acetic acid. This peptide solution was further diluted to 30 μg/ml in 3% FCS-PBS. Plates were incubated with the linear or cyclic peptide immunogen coupled to KLH, HER2-ECD or negative control peptide-KLH, in dilution buffer (3% FCS-PBS) for one hour at RT. […] Following washing, plates were then incubated with anti-mouse Ig-Alkaline phosphatase (Sigma A-3688), (1:3000 dilutions) for one hour at RT.

[2] = target: T2, linear HER2 peptide immunogen …; experiment: ELISA, antigen on the plate, antibody at 10 ug/mL, anti-mouse Ig-alkaline phosphatase, pNPP, A405nm
Method: as §1

[3] = target: T3, cyclic HER2 peptide immunogen …; experiment: as above
Method: as §1

[4] = target: T5, recombinant ErbB3/HER3 ECD (UniProt P21860 20-643, limits assumed); experiment: ELISA, plate coated with recombinant HER3 ECD, anti-mouse antibody-alkaline phosphatase, pNPP, A405 nm
T5 construct: extracellular domain; also called ErbB3 ECD
Method: (§2) Polystyrene 96-well plates were coated with […], 3 μg/mL recombinant ErbB2 ECD, ErbB3 ECD, ErbB4 ECD or EGFR501 in PBS overnight at 4° C. The plates were blocked with 3% FCS in PBS for one hour at room temperature (RT). Plates were incubated with 10 μg/mL serially diluted purified antibody along with appropriate controls for one hour at RT. Following washing three times, plates were incubated with anti-mouse IgG AP conjugate (1:2000 dilutions) for one hour at RT.

[5] = target: T4, recombinant ErbB4/HER4 ECD; experiment: ELISA, plate coated with recombinant HER4 ECD, anti-mouse antibody-alkaline phosphatase, pNPP, A405 nm
Method: as §2

[6] = target: T6, recombinant sEGFR ectodomain (EGFR501) (UniProt P00533 25-645, limits assumed); experiment: ELISA, plate coated with recombinant sEGFR ectodomain, anti-mouse antibody-alkaline phosphatase, pNPP, A405 nm
T6 construct: extracellular domain; also called EGFR/HER1 ectodomain
Method: as §2

| binding result [1] | binding result [2] | binding result [3] | binding result [4] | binding result [5] | binding result [6] | Binder |
| --- | --- | --- | --- | --- | --- | --- |
| no binding (tested: 10 ug/mL) | binds | binds | no binding (tested: 10000 ng/ml) | no binding (tested: 10000 ng/ml) | no binding (tested: 10000 ng/ml) | mAb104 (antibody, IgG1, V domains shown, Murine monoclonal purified from hybridoma supernatant) VH: EVQLQQSGPELVKPGASVKISCKASGYSFTGYFMHWVRQSHVRSLEWIGRINPYNGDIRYNQNFKDKASLTVDKSSSTAYMELHRLTSEDSAVFYCASLNFAYWGQGTPVTVSA VL: not shown |
| no binding (tested: 10 ug/mL) | binds | binds | – | – | – | mAb106 (antibody, IgG1, V domains shown, Murine monoclonal purified from hybridoma supernatant) VH: QIQLVQSGPELKKPGETVKISCKASGYTFTDYGMNWVKQAPGKGLKWMGWINTYTGKPTYDDDFKGRFAFSLETSASTAYLQINNLKNEDMATYFCARRFLNTVAGRSVYFDYWGQGTTLTVSS VL: QIVLTQSPALMSVSPGEKVTMTCSVSSSVGSMYWYQQKPRSSPKPWIYLTSNLASGVPPRFSGSGSGTSYSLTISSMEGEDAATYYCQQWSSNPPTFGAGTKLELKR |
